Data from paper PMC5054401.

How the values were obtained:
[1] = anti-Flag immunofluorescence, nucleus/cytoplasm densitometry; conditions: glycan lost
[2] = HeLa subcellular fractionation, anti-Flag western
[3] = OGT enzyme activity (Supplementary Fig. 5a,b); conditions: glycan lost; control: WT-OGT

B1: O-GlcNAc transferase (OGT): Mono-OGT S389A (protein)
parent chain: MASSVGNVADSTGLAELAHREYQAGDFEAAERHCMQLWRQEPDNTGVLLLLSSIHFQCRRLDRSAHFSTLAIKQNPLLAEAYSNLGNVYKERGQLQEAIEHYRHALRLKPDFIDGYINLAAALVAAGDMEGAVQAYVSALQYNPDLYCVRSDLGNLLKALGRLEEAKACYLKAIETQPNFAVAWSNLGCVFNAQGEIWLAIHHFEKAVTLDPNFLDAYINLGNVLKEARIFDRAVAAYLRALSLSPNHAVVHGNLACVYYEQGLIDLAIDTYRRAIELQPHFPDAYCNLANALKEKGSVAEAEDCYNTALRLCPTHADSLNNLANIKREQGNIEEAVRLYRKALEVFPEFAAAHSNLASVLQQQGKLQEALMHYKEAIRISPTFADAYSNMGNTLKEMQDVQGALQCYTRAIQINPAFADAHSNLASIHKDSGNIPEAIASYRTALKLKPDFPDAYCNLAHCLQIVCDWTDYDERMKKLVSIVADQLEKNRLPSVHPHHSMLYPLSHGFRKAIAERHGNLCLDKINVLHKPPYEHPKDLKLSDGRLRVGYVSSDFGNHPTSHLMQSIPGMHNPDKFEVFCYALSPDDGTNFRVKVMAEANHFIDLSQIPCNGKAADRIHQDGIHILVNMNGYTKGARNELFALRPAPIQAMWLGYPGTSGALFMDYIITDQETSPAEVAEQYSEKLAYMPHTFFIGDHANMFPHLKKKAVIDFKSNGHIYDNRIVLNGIDLKAFLDSLPDVKIVKMKCPDGGDNADSSNTALNMPVIPMNTIAEAVIEMINRGQIQITINGFSISNGLATTQINNKAATGEEVPRTIIVTTRSQYGLPEDAIVYCNFNQLYKIDPSTLQMWANILKRVPNSVLWLLRFPAVGEPNIQQYAQNMGLPQNRIIFSPVAPKEEHVRRGQLADVCLDTPLCNGHTTGMDVLWAGTPMVTMPGETLASRVAASQLTCLGCLELIAKNRQEYEDIAVKLGTDLEYLKKVRGKVWKQRISSPLFNTKQYTMELERLYLQMWEHYAAGNKPDHMIKPVEVTESA
With B1 the localisation_or_trafficking ([1]; control: Mono-OGT) was “decreases” and the localisation_or_trafficking ([2]; glycan lost, control: Mono-OGT) was “decreases”.

B2: O-GlcNAc transferase (OGT): Thiamet-G (protein)
parent chain: MASSVGNVADSTGLAELAHREYQAGDFEAAERHCMQLWRQEPDNTGVLLLLSSIHFQCRRLDRSAHFSTLAIKQNPLLAEAYSNLGNVYKERGQLQEAIEHYRHALRLKPDFIDGYINLAAALVAAGDMEGAVQAYVSALQYNPDLYCVRSDLGNLLKALGRLEEAKACYLKAIETQPNFAVAWSNLGCVFNAQGEIWLAIHHFEKAVTLDPNFLDAYINLGNVLKEARIFDRAVAAYLRALSLSPNHAVVHGNLACVYYEQGLIDLAIDTYRRAIELQPHFPDAYCNLANALKEKGSVAEAEDCYNTALRLCPTHADSLNNLANIKREQGNIEEAVRLYRKALEVFPEFAAAHSNLASVLQQQGKLQEALMHYKEAIRISPTFADAYSNMGNTLKEMQDVQGALQCYTRAIQINPAFADAHSNLASIHKDSGNIPEAIASYRTALKLKPDFPDAYCNLAHCLQIVCDWTDYDERMKKLVSIVADQLEKNRLPSVHPHHSMLYPLSHGFRKAIAERHGNLCLDKINVLHKPPYEHPKDLKLSDGRLRVGYVSSDFGNHPTSHLMQSIPGMHNPDKFEVFCYALSPDDGTNFRVKVMAEANHFIDLSQIPCNGKAADRIHQDGIHILVNMNGYTKGARNELFALRPAPIQAMWLGYPGTSGALFMDYIITDQETSPAEVAEQYSEKLAYMPHTFFIGDHANMFPHLKKKAVIDFKSNGHIYDNRIVLNGIDLKAFLDSLPDVKIVKMKCPDGGDNADSSNTALNMPVIPMNTIAEAVIEMINRGQIQITINGFSISNGLATTQINNKAATGEEVPRTIIVTTRSQYGLPEDAIVYCNFNQLYKIDPSTLQMWANILKRVPNSVLWLLRFPAVGEPNIQQYAQNMGLPQNRIIFSPVAPKEEHVRRGQLADVCLDTPLCNGHTTGMDVLWAGTPMVTMPGETLASRVAASQLTCLGCLELIAKNRQEYEDIAVKLGTDLEYLKKVRGKVWKQRISSPLFNTKQYTMELERLYLQMWEHYAAGNKPDHMIKPVEVTESA
With B2 the localisation_or_trafficking ([2]; glycan gained, control: untreated cells) was “increases”.

B3: O-GlcNAc transferase (OGT): 5-thio-GlcNAc (protein)
parent chain: MASSVGNVADSTGLAELAHREYQAGDFEAAERHCMQLWRQEPDNTGVLLLLSSIHFQCRRLDRSAHFSTLAIKQNPLLAEAYSNLGNVYKERGQLQEAIEHYRHALRLKPDFIDGYINLAAALVAAGDMEGAVQAYVSALQYNPDLYCVRSDLGNLLKALGRLEEAKACYLKAIETQPNFAVAWSNLGCVFNAQGEIWLAIHHFEKAVTLDPNFLDAYINLGNVLKEARIFDRAVAAYLRALSLSPNHAVVHGNLACVYYEQGLIDLAIDTYRRAIELQPHFPDAYCNLANALKEKGSVAEAEDCYNTALRLCPTHADSLNNLANIKREQGNIEEAVRLYRKALEVFPEFAAAHSNLASVLQQQGKLQEALMHYKEAIRISPTFADAYSNMGNTLKEMQDVQGALQCYTRAIQINPAFADAHSNLASIHKDSGNIPEAIASYRTALKLKPDFPDAYCNLAHCLQIVCDWTDYDERMKKLVSIVADQLEKNRLPSVHPHHSMLYPLSHGFRKAIAERHGNLCLDKINVLHKPPYEHPKDLKLSDGRLRVGYVSSDFGNHPTSHLMQSIPGMHNPDKFEVFCYALSPDDGTNFRVKVMAEANHFIDLSQIPCNGKAADRIHQDGIHILVNMNGYTKGARNELFALRPAPIQAMWLGYPGTSGALFMDYIITDQETSPAEVAEQYSEKLAYMPHTFFIGDHANMFPHLKKKAVIDFKSNGHIYDNRIVLNGIDLKAFLDSLPDVKIVKMKCPDGGDNADSSNTALNMPVIPMNTIAEAVIEMINRGQIQITINGFSISNGLATTQINNKAATGEEVPRTIIVTTRSQYGLPEDAIVYCNFNQLYKIDPSTLQMWANILKRVPNSVLWLLRFPAVGEPNIQQYAQNMGLPQNRIIFSPVAPKEEHVRRGQLADVCLDTPLCNGHTTGMDVLWAGTPMVTMPGETLASRVAASQLTCLGCLELIAKNRQEYEDIAVKLGTDLEYLKKVRGKVWKQRISSPLFNTKQYTMELERLYLQMWEHYAAGNKPDHMIKPVEVTESA
In the case of B3, the localisation_or_trafficking ([1]; control: untreated cells) is reported as “decreases” and the localisation_or_trafficking ([2]; glycan lost, control: untreated cells) is reported as “decreases”.

B4: O-GlcNAc transferase (OGT): OGT S389A (protein)
parent chain: MASSVGNVADSTGLAELAHREYQAGDFEAAERHCMQLWRQEPDNTGVLLLLSSIHFQCRRLDRSAHFSTLAIKQNPLLAEAYSNLGNVYKERGQLQEAIEHYRHALRLKPDFIDGYINLAAALVAAGDMEGAVQAYVSALQYNPDLYCVRSDLGNLLKALGRLEEAKACYLKAIETQPNFAVAWSNLGCVFNAQGEIWLAIHHFEKAVTLDPNFLDAYINLGNVLKEARIFDRAVAAYLRALSLSPNHAVVHGNLACVYYEQGLIDLAIDTYRRAIELQPHFPDAYCNLANALKEKGSVAEAEDCYNTALRLCPTHADSLNNLANIKREQGNIEEAVRLYRKALEVFPEFAAAHSNLASVLQQQGKLQEALMHYKEAIRISPTFADAYSNMGNTLKEMQDVQGALQCYTRAIQINPAFADAHSNLASIHKDSGNIPEAIASYRTALKLKPDFPDAYCNLAHCLQIVCDWTDYDERMKKLVSIVADQLEKNRLPSVHPHHSMLYPLSHGFRKAIAERHGNLCLDKINVLHKPPYEHPKDLKLSDGRLRVGYVSSDFGNHPTSHLMQSIPGMHNPDKFEVFCYALSPDDGTNFRVKVMAEANHFIDLSQIPCNGKAADRIHQDGIHILVNMNGYTKGARNELFALRPAPIQAMWLGYPGTSGALFMDYIITDQETSPAEVAEQYSEKLAYMPHTFFIGDHANMFPHLKKKAVIDFKSNGHIYDNRIVLNGIDLKAFLDSLPDVKIVKMKCPDGGDNADSSNTALNMPVIPMNTIAEAVIEMINRGQIQITINGFSISNGLATTQINNKAATGEEVPRTIIVTTRSQYGLPEDAIVYCNFNQLYKIDPSTLQMWANILKRVPNSVLWLLRFPAVGEPNIQQYAQNMGLPQNRIIFSPVAPKEEHVRRGQLADVCLDTPLCNGHTTGMDVLWAGTPMVTMPGETLASRVAASQLTCLGCLELIAKNRQEYEDIAVKLGTDLEYLKKVRGKVWKQRISSPLFNTKQYTMELERLYLQMWEHYAAGNKPDHMIKPVEVTESA
With B4 the enzymatic_activity [3] was “no change”.
